Results taken from the supplement of paper PMC9112550, “Optimization of the antimicrobial peptide Bac7 by deep mutational scanning” (BMC Biology, 2022).

Test system: Escherichia coli TOP10
Test: shrunken log2 fold change of peptide-encoding DNA abundance (4.5 h post-induction vs induction); higher = less antimicrobial activity (less host growth inhibition)
Conditions: time post-induction: 4.5 h; library: site-saturation at positions 5, 18, 19, 20
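Also: peptides expressed intracellularly from a pBAD plasmid library in pooled LB shake-flask culture, induced with 0.3% L-arabinose, DNA abundance read by NGS, three biological replicates, DESeq2 with apeglm shrinkage.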

Sequence	shrunken log2 fold change
RRIRPRPPRLPRPRPRPPMWPRP	0.412
RRIRNRPPRLPRPRPRPLMFPRP	-0.947
RRIRYRPPRLPRPRPRPKVMPRP	-0.296
RRIRQRPPRLPRPRPRPWPVPRP	0.103
RRIRSRPPRLPRPRPRPNDPPRP	-0.619
RRIRNRPPRLPRPRPRPPSSPRP	-0.0814
RRIRVRPPRLPRPRPRPCTRPRP	-0.214
RRIRIRPPRLPRPRPRPWTLPRP	-0.0808
RRIRWRPPRLPRPRPRPFLGPRP	-0.552
RRIRVRPPRLPRPRPRPMEAPRP	0.0665
RRIRARPPRLPRPRPRPMVVPRP	-0.0787
RRIRFRPPRLPRPRPRPQWWPRP	-0.0312
RRIRVRPPRLPRPRPRPGNVPRP	-0.393
RRIRHRPPRLPRPRPRPEVTPRP	0.05
RRIRLRPPRLPRPRPRPMCLPRP	-0.166
RRIRGRPPRLPRPRPRPFRKPRP	-0.0984
RRIRSRPPRLPRPRPRPFFPPRP	-0.196
RRIRTRPPRLPRPRPRPFGPPRP	0.204
RRIRLRPPRLPRPRPRPITQPRP	-0.264
RRIRKRPPRLPRPRPRPRKVPRP	0.596
RRIRLRPPRLPRPRPRPWWMPRP	-0.0102
RRIRYRPPRLPRPRPRPALMPRP	-0.226
RRIRLRPPRLPRPRPRPMWFPRP	0.106
RRIRKRPPRLPRPRPRPAMVPRP	0.87
RRIRSRPPRLPRPRPRPYSAPRP	-0.0105

Sequence	shrunken log2 fold change
RRIRYRPPRLPRPRPRPCPFPRP	-0.0574
RRIRMRPPRLPRPRPRPRDYPRP	-0.164
RRIRPRPPRLPRPRPRPLNPPRP	-0.131
RRIRGRPPRLPRPRPRPKAMPRP	0.147
RRIRTRPPRLPRPRPRPDKAPRP	-0.0271
RRIRNRPPRLPRPRPRPMDGPRP	-0.261
RRIRQRPPRLPRPRPRPMQDPRP	-0.0104
RRIRRRPPRLPRPRPRPYGHPRP	-0.198
RRIRVRPPRLPRPRPRPQPRPRP	0.429
RRIRHRPPRLPRPRPRPTERPRP	0.18
RRIRIRPPRLPRPRPRPKYVPRP	-0.134
RRIRYRPPRLPRPRPRPSCIPRP	-0.118
RRIRRRPPRLPRPRPRPCPQPRP	0.0779
RRIRARPPRLPRPRPRPWAWPRP	0.239
RRIRCRPPRLPRPRPRPRQVPRP	0.184
RRIRDRPPRLPRPRPRPTSQPRP	0.495
RRIRDRPPRLPRPRPRPPNHPRP	-0.205
RRIRHRPPRLPRPRPRPPYHPRP	-0.495
RRIRIRPPRLPRPRPRPHAHPRP	-0.554
RRIRWRPPRLPRPRPRPCYNPRP	-0.24
RRIRNRPPRLPRPRPRPLVSPRP	-0.185
RRIRNRPPRLPRPRPRPLLAPRP	0.253
RRIRLRPPRLPRPRPRPRHRPRP	-0.0544
RRIRTRPPRLPRPRPRPWWMPRP	-0.133
RRIRKRPPRLPRPRPRPLMPPRP	0.232

Sequence	shrunken log2 fold change
RRIRCRPPRLPRPRPRPWAYPRP	-0.508
RRIRFRPPRLPRPRPRPSKAPRP	-0.367
RRIRERPPRLPRPRPRPFRNPRP	-0.105
RRIRTRPPRLPRPRPRPFKKPRP	-0.102
RRIRHRPPRLPRPRPRPLKDPRP	-0.361
RRIRARPPRLPRPRPRPDHAPRP	-0.0131
RRIRARPPRLPRPRPRPYNFPRP	-0.192
RRIRRRPPRLPRPRPRPPCIPRP	0.156
RRIRRRPPRLPRPRPRPFPPPRP	0.222
RRIRVRPPRLPRPRPRPIPGPRP	-0.0572
RRIRNRPPRLPRPRPRPDKRPRP	-0.0491
RRIRCRPPRLPRPRPRPDEPPRP	0.189
RRIRWRPPRLPRPRPRPCKYPRP	-0.509
RRIRHRPPRLPRPRPRPEKTPRP	0.115
RRIRSRPPRLPRPRPRPKYLPRP	-0.756
RRIRLRPPRLPRPRPRPMNYPRP	-0.0583
RRIRLRPPRLPRPRPRPRSSPRP	-0.277
RRIRRRPPRLPRPRPRPFPYPRP	-0.28
RRIRHRPPRLPRPRPRPFYFPRP	-0.355
RRIRHRPPRLPRPRPRPDDYPRP	-0.00759
RRIRRRPPRLPRPRPRPISWPRP	-0.166
RRIRNRPPRLPRPRPRPFMIPRP	-0.294
RRIRCRPPRLPRPRPRPYVNPRP	-1.3
RRIRSRPPRLPRPRPRPFAVPRP	-0.113
RRIRERPPRLPRPRPRPQIMPRP	-0.398

Sequence	shrunken log2 fold change
RRIRKRPPRLPRPRPRPVNGPRP	0.0996
RRIRKRPPRLPRPRPRPRKKPRP	0.381
RRIRGRPPRLPRPRPRPQEPPRP	0.134
RRIRARPPRLPRPRPRPEWRPRP	0.37
RRIRPRPPRLPRPRPRPMSQPRP	0.0517
RRIRNRPPRLPRPRPRPYSSPRP	-0.027
RRIRCRPPRLPRPRPRPNILPRP	-0.701
RRIRGRPPRLPRPRPRPYDRPRP	0.136
RRIRGRPPRLPRPRPRPNQGPRP	0.0411
RRIRFRPPRLPRPRPRPVMPPRP	-0.12
RRIRSRPPRLPRPRPRPHFSPRP	-0.112
RRIRSRPPRLPRPRPRPFQWPRP	0.319
RRIRQRPPRLPRPRPRPAIFPRP	-0.0662
RRIRRRPPRLPRPRPRPDRYPRP	-0.0438
RRIRVRPPRLPRPRPRPHMKPRP	-0.483
RRIRDRPPRLPRPRPRPPQQPRP	-0.089
RRIRYRPPRLPRPRPRPWELPRP	0.0358
RRIRNRPPRLPRPRPRPNGLPRP	0.00468
RRIRWRPPRLPRPRPRPYWSPRP	-0.295
RRIRTRPPRLPRPRPRPDRAPRP	-0.438
RRIRARPPRLPRPRPRPHCQPRP	0.0405
RRIRCRPPRLPRPRPRPGKSPRP	0.0822
RRIRLRPPRLPRPRPRPMHRPRP	-0.274
RRIRHRPPRLPRPRPRPCCSPRP	-0.313
RRIRSRPPRLPRPRPRPNYDPRP	-0.247

Sequence	shrunken log2 fold change
RRIRARPPRLPRPRPRPFDRPRP	0.0972
RRIRARPPRLPRPRPRPYIRPRP	-0.406
RRIRSRPPRLPRPRPRPIHAPRP	-0.0213
RRIRYRPPRLPRPRPRPVANPRP	-0.0575
RRIRTRPPRLPRPRPRPMCPPRP	-0.017
RRIRYRPPRLPRPRPRPQDSPRP	-0.0125
RRIRARPPRLPRPRPRPWYHPRP	-0.0138
RRIRFRPPRLPRPRPRPPYDPRP	-0.49
RRIRARPPRLPRPRPRPQWNPRP	-0.00397
RRIRIRPPRLPRPRPRPMYGPRP	-0.437
RRIRWRPPRLPRPRPRPKKGPRP	0.22
RRIRQRPPRLPRPRPRPLCHPRP	-0.142
RRIRPRPPRLPRPRPRPQPMPRP	0.225
RRIRRRPPRLPRPRPRPMRSPRP	0.579
RRIRWRPPRLPRPRPRPWVLPRP	0.287
RRIRTRPPRLPRPRPRPSCDPRP	-0.347
RRIRLRPPRLPRPRPRPMPKPRP	-0.105
RRIRYRPPRLPRPRPRPDSIPRP	-0.0267
RRIRKRPPRLPRPRPRPETEPRP	0.0991
RRIRIRPPRLPRPRPRPSSIPRP	-0.169
RRIRYRPPRLPRPRPRPGTHPRP	-0.678
RRIRQRPPRLPRPRPRPWVPPRP	-0.152
RRIRHRPPRLPRPRPRPNTRPRP	-0.28
RRIRYRPPRLPRPRPRPFQMPRP	-0.143
RRIRQRPPRLPRPRPRPTFMPRP	-0.552

Sequence	shrunken log2 fold change
RRIRLRPPRLPRPRPRPQPPPRP	0.517
RRIRPRPPRLPRPRPRPPSSPRP	-0.207
RRIRNRPPRLPRPRPRPHSKPRP	-0.117
RRIRSRPPRLPRPRPRPENSPRP	-0.0239
RRIRQRPPRLPRPRPRPASVPRP	0.253
RRIRERPPRLPRPRPRPPQAPRP	0.154
RRIRRRPPRLPRPRPRPSWRPRP	0.355
RRIRTRPPRLPRPRPRPDSEPRP	-0.182
RRIRARPPRLPRPRPRPEGEPRP	1.39
RRIRGRPPRLPRPRPRPRKPPRP	0.399
RRIRYRPPRLPRPRPRPFRGPRP	-0.303
RRIRPRPPRLPRPRPRPQPDPRP	-0.0815
RRIRERPPRLPRPRPRPIATPRP	0.221
RRIRQRPPRLPRPRPRPEQHPRP	-0.0137
RRIRSRPPRLPRPRPRPGAHPRP	0.0286
RRIRNRPPRLPRPRPRPSTLPRP	-0.474
RRIRKRPPRLPRPRPRPAWMPRP	0.212
RRIRCRPPRLPRPRPRPWASPRP	0.0212
RRIRYRPPRLPRPRPRPYIIPRP	-0.241
RRIRGRPPRLPRPRPRPSCNPRP	0.588
RRIRWRPPRLPRPRPRPQSWPRP	0.302
RRIRWRPPRLPRPRPRPRAGPRP	0.673
RRIRIRPPRLPRPRPRPAAFPRP	-0.234
RRIRMRPPRLPRPRPRPKQDPRP	1.14
RRIRCRPPRLPRPRPRPIGDPRP	-0.0014
